From paper PMC2171506 come the findings set out here.

For the assay, the target named is CYK-4/MgcRacGAP (UniProt Q9H0H5). Put plainly: myc IP, anti-CYK-4 Western blot. The settings on record: reference: E6 wild type; sites T342.
UniProt Q9H0H5, sequence (Q9H0H5 whole entry, looked up): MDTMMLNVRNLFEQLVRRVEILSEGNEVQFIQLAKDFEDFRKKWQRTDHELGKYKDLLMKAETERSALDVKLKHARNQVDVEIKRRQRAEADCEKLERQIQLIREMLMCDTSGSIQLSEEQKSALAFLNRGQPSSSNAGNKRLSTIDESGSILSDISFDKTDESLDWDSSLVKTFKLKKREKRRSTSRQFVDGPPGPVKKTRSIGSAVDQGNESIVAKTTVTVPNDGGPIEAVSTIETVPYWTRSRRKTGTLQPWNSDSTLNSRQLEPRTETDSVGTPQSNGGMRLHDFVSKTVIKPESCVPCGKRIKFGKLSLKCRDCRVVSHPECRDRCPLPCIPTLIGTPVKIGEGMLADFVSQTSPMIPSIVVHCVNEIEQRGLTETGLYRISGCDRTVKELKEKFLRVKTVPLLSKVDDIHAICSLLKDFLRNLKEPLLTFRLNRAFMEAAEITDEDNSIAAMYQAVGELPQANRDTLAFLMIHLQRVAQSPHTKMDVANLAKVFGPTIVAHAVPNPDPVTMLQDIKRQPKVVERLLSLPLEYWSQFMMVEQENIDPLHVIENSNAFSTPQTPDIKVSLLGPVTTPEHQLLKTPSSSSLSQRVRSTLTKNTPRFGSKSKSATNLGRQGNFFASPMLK

For “ECT2 E6, 1-352 (from UniProt Q9H8V3-4) E6* (T342A)”, the “binding against the reference” value is “stronger”.
